Data as given in the supplement of paper PMC11246515.
± gives the standard deviation of the averaged measurements.

Assay: total protein half-life in vivo (active degradation + dilution); higher = more stable protein
[1] = E. coli NCM3722 delta-clpP delta-lon delta-hslV, growth: N-lim chemostat, doubling time 6 h
[2] = E. coli NCM3722 delta-clpP, growth: N-lim chemostat, doubling time 6 h
[3] = E. coli NCM3722 delta-hslV, growth: N-lim chemostat, doubling time 6 h
[4] = E. coli NCM3722 delta-lon, growth: N-lim chemostat, doubling time 6 h
[5] = E. coli NCM3722 delta-smpB, growth: N-lim chemostat, doubling time 6 h
[6] = wild type E. coli NCM3722, growth: C-lim chemostat, doubling time 3 h
[7] = wild type E. coli NCM3722, growth: C-lim chemostat, doubling time 6 h
[8] = wild type E. coli NCM3722, growth: C-lim chemostat, doubling time 12 h
[9] = wild type E. coli NCM3722, growth: N-lim chemostat, doubling time 6 h
[10] = wild type E. coli NCM3722, growth: N-lim chemostat, doubling time 12 h
[11] = wild type E. coli NCM3722, growth: P-lim chemostat, doubling time 6 h
[12] = wild type E. coli NCM3722, growth: P-lim chemostat, doubling time 12 h

## MKQYLELMQKVLDEGTQKNDRTGTGTLSIFGHQMRFNLQDGFPLVTTKRCHLRSIIHELLWFLQGDTNIAYLHENNVTIWDEWADENGDLGPVYGKQWRAWPTPDGRHIDQITTVLNQLKNDPDSRRIIVSAWNVGELDKMALAPCHAFFQFYVADGKLSCQLYQRSCDVFLGLPFNIASYALLVHMMAQQCDLEVGDFVWTGGDTHLYSNHMDQTHLQLSREPRPLPKLIIKRKPESIFDYRFEDFEIEGYDPHPGIKAPVAI [P0A884]
[1]
  total protein half-life in vivo: 4.71 ± 0.41 h
[2]
  total protein half-life in vivo: 4.939 ± 0.04 h
[3]
  total protein half-life in vivo: 4.26 ± 0.21 h
[4]
  total protein half-life in vivo: 4.54 ± 0.25 h
[5]
  total protein half-life in vivo: 4.48 ± 0.38 h
[6]
  total protein half-life in vivo: 3.23 ± 0.11 h
[7]
  total protein half-life in vivo: 5.59 ± 0.4 h
[8]
  total protein half-life in vivo: 10.3 ± 0.11 h
[9]
  total protein half-life in vivo: 4.62 ± 0.15 h
[10]
  total protein half-life in vivo: 7.94 ± 0.4 h
[11]
  total protein half-life in vivo: 5.65 ± 0.14 h
[12]
  total protein half-life in vivo: 10.4 ± 2.7 h

## MDVQQFFVVAVFFLIPIFCFREAWKGWRAGAIDKRVKNAPEPVYVWRAKNPGLFFAYMVAYIGFGILSIGMIVYLIFYR
[1]
  total protein half-life in vivo: 2.64 h
[3]
  total protein half-life in vivo: 3.67 h
[5]
  total protein half-life in vivo: 4.42 h
[7]
  total protein half-life in vivo: 1.84 h
[11]
  total protein half-life in vivo: 4.74 h
[12]
  total protein half-life in vivo: 8.43 h

## MFSEVMRYILDLGPTVMLPIVIIIFSKILGMKAGDCFKAGLHIGIGFVGIGLVIGLMLDSIGPAAKAMAENFDLNLHVVDVGWPGSSPMTWASQIALVAIPIAILVNVAMLLTRMTRVVNVDIWNIWHMTFTGALLHLATGSWMIGMAGVVIHAAFVYKLGDWFARDTRNFFELEGIAIPHGTSAYMGPIAVLVDAIIEKIPGVNRIKFSADDIQRKFGPFGEPVTVGFVMGLIIGILAGYDVKGVLQLAVKTAAVMLLMPRVIKPIMDGLTPIAKQARSRLQAKFGGQEFLIGLDPALLLGHTAVVSASLIFIPLTILIAVCVPGNQVLPFGDLATIGFFVAMAVAVHRGNLFRTLISGVIIMSITLWIATQTIGLHTQLAANAGALKAGGMVASMDQGGSPITWLLIQVFSPQNIPGFIIIGAIYLTGIFMTWRRARGFIKQEKVVLAE
[1]
  total protein half-life in vivo: 6.09 h

## MKIKNILLTLCTSLLLTNVAAHAKEVKIGMAIDDLRLERWQKDRDIFVKKAESLGAKVFVQSANGNEETQMSQIENMINRGVDVLVIIPYNGQVLSNVVKEAKQEGIKVLAYDRMINDADIDFYISFDNEKVGELQAKALVDIVPQGNYFLMGGSPVDNNAKLFRAGQMKVLKPYVDSGKIKVVGDQWVDGWLPENALKIMENALTANNNKIDAVVASNDATAGGAIQALSAQGLSGKVAISGQDADLAGIKRIAAGTQTMTVYKPITLLANTAAEIAVELGNGQEPKADTTLNNGLKDVPSRLLTPIDVNKNNIKDTVIKDGFHKESEL
[1]
  total protein half-life in vivo: 4.59 ± 0.8 h
[2]
  total protein half-life in vivo: 5.33 ± 0.069 h
[3]
  total protein half-life in vivo: 5.88 ± 0.42 h
[4]
  total protein half-life in vivo: 4.43 h
[5]
  total protein half-life in vivo: 6.1 ± 0.13 h
[6]
  total protein half-life in vivo: 2.99 ± 0.08 h
[7]
  total protein half-life in vivo: 5.41 ± 0.45 h
[8]
  total protein half-life in vivo: 8.38 ± 1.2 h
[9]
  total protein half-life in vivo: 5.53 ± 0.86 h
[10]
  total protein half-life in vivo: 11.2 ± 2.2 h
[11]
  total protein half-life in vivo: 5.733 ± 0.025 h
[12]
  total protein half-life in vivo: 11.9 ± 0.15 h

## MQYHRIPHSSLEVSTLGLGTMTFGEQNSEADAHAQLDYAVAQGINLIDVAEMYPVPPRPETQGLTETYVGNWLAKHGSREKLIIASKVSGPSRNNDKGIRPDQALDRKNIREALHDSLKRLQTDYLDLYQVHWPQRPTNCFGKLGYSWTDSAPAVSLLDTLDALAEYQRAGKIRYIGVSNETAFGVMRYLHLADKHDLPRIVTIQNPYSLLNRSFEVGLAEVSQYEGVELLAYSCLGFGTLTGKYLNGAKPAGARNTLFSRFTRYSGEQTQKAVAAYVDIARRHGLDPAQMALAFVRRQPFVASTLLGATTMDQLKTNIESLHLELSEDVLAEIEAVHQVYTYPAP [P0A9T4]
[1]
  total protein half-life in vivo: 5.76 ± 0.33 h
[2]
  total protein half-life in vivo: 5.29 ± 0.14 h
[3]
  total protein half-life in vivo: 5.5 ± 0.14 h
[4]
  total protein half-life in vivo: 4.99 ± 0.068 h
[5]
  total protein half-life in vivo: 4.6 ± 0.38 h
[6]
  total protein half-life in vivo: 3.41 ± 0.077 h
[7]
  total protein half-life in vivo: 5.9 ± 0.19 h
[8]
  total protein half-life in vivo: 10.4 ± 0.85 h
[9]
  total protein half-life in vivo: 4.88 ± 0.55 h
[10]
  total protein half-life in vivo: 8.51 ± 0.57 h
[11]
  total protein half-life in vivo: 6.32 ± 0.44 h
[12]
  total protein half-life in vivo: 12.8 ± 0.13 h

## MTTLSCKVTSVEAITDTVYRVRIVPDAAFSFRAGQYLMVVMDERDKRPFSMASTPDEKGFIELHIGASEINLYAKAVMDRILKDHQIVVDIPHGEAWLRDDEERPMILIAGGTGFSYARSILLTALARNPNRDITIYWGGREEQHLYDLCELEALSLKHPGLQVVPVVEQPEAGWRGRTGTVLTAVLQDHGTLAEHDIYIAGRFEMAKIARDLFCSERNAREDRLFGDAFAFI [P0AEN1]
[1]
  total protein half-life in vivo: 5.7 ± 0.93 h
[2]
  total protein half-life in vivo: 4.72 ± 0.087 h
[3]
  total protein half-life in vivo: 4.19 ± 0.12 h
[4]
  total protein half-life in vivo: 4.62 ± 0.48 h
[5]
  total protein half-life in vivo: 4.21 ± 0.8 h
[6]
  total protein half-life in vivo: 2.74 ± 0.19 h
[7]
  total protein half-life in vivo: 5.78 ± 0.43 h
[8]
  total protein half-life in vivo: 8.71 ± 1.9 h
[9]
  total protein half-life in vivo: 4.2 ± 0.26 h
[10]
  total protein half-life in vivo: 7.18 ± 0.22 h
[11]
  total protein half-life in vivo: 4.62 ± 1 h
[12]
  total protein half-life in vivo: 9.49 ± 0.3 h

## MEKNSLFSQRIRLRHLHTFVAVAQQGTLGRAAETLNLSQPALSKTLNELEQLTGARLFERGRQGAQLTLPGEQFLTHAVRVLDAINTAGRSLHRKEGLNNDVVRVGALPTAALGILPSVIGQFHQQQKETTLQVATMSNPMILAGLKTGEIDIGIGRMSDPELMTGLNYELLFLESLKLVVRPNHPLLQENVTLSRVLEWPVVVSPEGTAPRQHSDALVQSQGCKIPSGCIETLSASLSRQLTVEYDYVWFVPSGAVKDDLRHATLVALPVPGHGAGEPIGILTRVDATFSSGCQLMINAIRKSMPF
[1]
  total protein half-life in vivo: 5.7 ± 0.088 h
[2]
  total protein half-life in vivo: 2.66 ± 1.2 h
[3]
  total protein half-life in vivo: 2.014 ± 0.017 h
[4]
  total protein half-life in vivo: 4.21 ± 0.12 h
[5]
  total protein half-life in vivo: 1.61 ± 0.065 h
[6]
  total protein half-life in vivo: 1.77 ± 0.26 h
[7]
  total protein half-life in vivo: 3.159 ± 0.0044 h
[8]
  total protein half-life in vivo: 4.49 ± 0.46 h
[9]
  total protein half-life in vivo: 2.01 ± 0.12 h
[10]
  total protein half-life in vivo: 2.5 ± 0.039 h
[11]
  total protein half-life in vivo: 2.67 ± 0.7 h
[12]
  total protein half-life in vivo: 3.86 ± 0.13 h
